One experiment has as its target pY542 peptide (human). Put plainly: SPR.
The target of the next experiment is pY580 peptide (human). Description: SPR. On the technique in general: In SPR one partner is held on a chip, and binding of the other changes the refractive index at the surface.

By Kd is commonly meant the free concentration of one partner at which half of the binding sites on the other are occupied at equilibrium, for simple one-to-one binding. A lower Kd goes with higher affinity. On to “C-SH2 domain of Shp2, histidine-tagged (domain or fragment)”, for which the Kd in the experiment with pY542 peptide (human) was determined as 15.1 µM; in the experiment with pY580 peptide (human) it was 294 µM.

(Values after publication PMC3777412.)
